Laboratory results published in publication PMC11197336.

Legend:
[1] = molecular target: SepM_D221N (Streptococcus mutans); assay: MST; SepM (50 nM) labelled on its His-tag with RED-tris-NTA; CSP-21 in a 16-point serial dilution from 100 µM; PBS pH 7.5; 25 °C; Monolith NT.115, triplicate
[2] = molecular target: SepM_control (Streptococcus mutans); assay: as above
[3] = molecular target: SepM_G178D (Streptococcus mutans); assay: as above
[4] = molecular target: SepM_D221N (Streptococcus mutans); assay: MST; SepM (50 nM) labelled on its His-tag with RED-tris-NTA; CSP-21 in a 16-point serial dilution from 100 µM; PBS pH 5.5; 25 °C; Monolith NT.115, triplicate
[5] = molecular target: SepM_control (Streptococcus mutans); assay: as above
[6] = molecular target: SepM_G178D (Streptococcus mutans); assay: as above
[7] = molecular target: SepM_D221N (Streptococcus mutans); assay: MST; SepM (50 nM) labelled on its His-tag with RED-tris-NTA; CSP-21 in a 16-point serial dilution from 100 µM; PBS pH 5.5; 37 °C; Monolith NT.115, triplicate
[8] = molecular target: SepM_control (Streptococcus mutans); assay: as above
[9] = molecular target: SepM_G178D (Streptococcus mutans); assay: as above
[10] = molecular target: SepM_D221N (Streptococcus mutans); assay: MST; SepM (50 nM) labelled on its His-tag with RED-tris-NTA; CSP-21 in a 16-point serial dilution from 100 µM; PBS pH 7.5; 37 °C; Monolith NT.115, triplicate
[11] = molecular target: SepM_control (Streptococcus mutans); assay: as above
[12] = molecular target: SepM_G178D (Streptococcus mutans); assay: as above

CSP-21 (peptide)
Kd [1]: 20.8 µM | Kd [2]: 15.9 µM | Kd [3]: 3.02 µM | Kd [4]: 8.25 µM | Kd [5]: 33.1 µM | Kd [6]: 44.2 µM | Kd [7]: 7.52 µM | Kd [8]: 12.8 µM | Kd [9]: 21.4 µM | Kd [10]: 28.7 µM | Kd [11]: 29.3 µM | Kd [12]: 85 µM
